{"source": "patent US20230250164A1", "about": "(AB2 BIO, published 2023)", "binders": {"B1": {"name": "Antibody 132H4 (antibody, V domains shown)", "VH": "EVKLVESGGGLVKPGGSLKLSCAASGFTFSNYAMSWVRQNPAKRLEWVATISSGGANIYYPDSVKGRFIISRDNARNTLYLQMSSLRSEDTAMYYCARGDYFNHFWFAYWGQGTLVTVSA", "VL": "DVLMTQTPLSLPVSLGDQASISCRSSQSIVHSNGNTYLEWYLQKPGQSPKFLIYKVSNRFSGVPDRFSGSGSGTDFTLKINRVEAEDLGIYYCFQGSHVPWTFGGGTKLEIK", "notes": "Mouse hybridoma monoclonal antibody"}, "B2": {"name": "Antibody 109A6 (antibody, V domains shown)", "VH": "EVQLQQSGAELVKPGASVKLSCTASGFKIKDTYIHWVIQRPAQGLEWIGRIDPANGNTIYGSKFQGKATLTADTSSNTAYIHLSSLTSGDSAVYYCAGYVWFAYWGQGTLVTVSA", "VL": "DVVMTQVPLSLPVSLGDQASISCRSSQRLVHSNGNTYLHWFLQKPGQSPKLLIYTVSNRFSGVPDRFSGSGSGTDFTLKISRVEAEDLGVYFCSQSTLVPWTFGGGTKLEIK", "notes": "as for B1"}, "B3": {"name": "Antibody 131B4 (antibody, V domains shown)", "VH": "B2 VH with L4V, V37L, I38K, A42E, L70I, H82Q, S91T, Y95F", "VL": "DAVLTQTPLSLPVSLGDQASISCTSSQSLVHSNGNTYLHWYLQKPGQSPKLLIYKVSDRFSGVPDRFSGSGSGTDFTLMITRVEAEDLGVYFCSQSSLVPWTFGGGTKLEVK", "notes": "as for B1"}, "B4": {"name": "Antibody 107C6 (antibody, V domains shown)", "VH": "QIQLVQSGPELKKPGETVKLSCRASGYTFTNYGMNWVKQAPGKGLKWMGWINTYSGVPTYADDFKGQFAFSLETSAATAFLQINNLKDEDTATYFCAREGYSTTRSMDYWGQGTSVTVSS", "VL": "DIVMSQSPSSLAVSAGEKVTMSCKSSQSLLDSRTRKNYLVWYQQKPGQSPKLLIYWASTRGSGVPDRFTGSGSGTDFTLTISSVQAEDLAVYYCKQSYNLRTFGGGTKLEIK", "notes": "Mouse hybridoma monoclonal antibody; also called clone #107C6"}, "B5": {"name": "monoclonal anti-IL-18 antibody clone 131H1 (antibody)", "chain 1": "QVQLKQSGPGLVQPSQSLSITCTVSGFSLTSYGVHWVRQSPGKGLEWLGVIWSGGSTDYNAAFISRLSISKDNSKSQVFFKMNSLQADDTAIYYCARSYDYDGRGYFDYWGQGTTLTVSS", "chain 2": "DIQMTQSPASLSASVGETVTITCRASENVYRYLAWYQQRQGKSPQLLVYSAKTLAEGVPSRFSGSGSGTQFSLKINTLQPEDFGTYYCQHHYNTPLTFGAGTKLELK", "chain 3": "B4 VL with L30F, D31N, R33K, V40A, Y42F, K51E, G61K, R101W"}, "B6": {"name": "Antibody 108F8 (antibody, V domains shown)", "VH": "B4 VH with E10D, L11S", "VL": "B4 VL", "notes": "as for B1"}, "B7": {"name": "recombinant human IL-18 Binding Protein (IL-18BP) (other)", "chain": "TPVSQTTTAATASVRSTKDPCPSQPPVFPAAKQCPALEVTWPEVEVPLNGTLSLSCVACSRFPNFSILYWLGNGSFIEHLPGRLWEGSTSRERGSTGTQLCKALVLEQLTPALHSTNFSCVLVDPEQVVQRHVVLAQLWAGLRATLPPTQEALPSSHSSPQQQG", "notes": "Biotinylated in the second Luminex screening step; also called human IL-18BP; hIL-18BP"}}, "note": "Changes are numbered by the printed parent chain.", "data": [{"biological_target": "T1, human interleukin-18 (IL-18), recombinant (human, UniProt Q14116 37-193)", "T1 construct": "Commercial recombinant human IL-18; also called human IL-18; free IL-18", "T1 sequence (looked up)": "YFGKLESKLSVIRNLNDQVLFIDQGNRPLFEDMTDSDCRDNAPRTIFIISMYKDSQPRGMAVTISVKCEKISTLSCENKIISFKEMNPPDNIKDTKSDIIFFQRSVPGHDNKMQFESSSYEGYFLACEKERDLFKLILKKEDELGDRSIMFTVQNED", "test": "Luminex, IL-18 on beads, hybridoma antibody", "method": "(§1) Mice were vaccinated aginst human interleukin-18 using a technology allowing immunization with properly folded proteins. […] Following immunization, B cells were isolated from spleen and hybridized following standard hybridoma technology. […] The screening was performed in 3 sequential and selective steps: […]", "units": {"fluorescence intensity (monoclonal antibody binding on IL-18)": "fluorescence intensity"}, "values": [{"binder": "B1", "fluorescence intensity (monoclonal antibody binding on IL-18)": 23800}, {"binder": "B2", "fluorescence intensity (monoclonal antibody binding on IL-18)": 25800}, {"binder": "B3", "fluorescence intensity (monoclonal antibody binding on IL-18)": 24800}, {"binder": "B4", "fluorescence intensity (monoclonal antibody binding on IL-18)": 26200}, {"binder": "B5", "fluorescence intensity (monoclonal antibody binding on IL-18)": 24800}, {"binder": "B6", "fluorescence intensity (monoclonal antibody binding on IL-18)": 25100}]}, {"biological_target": "T2, IL-18/IL-18BP complex (human, UniProt Q14116 37-193)", "T2 construct": "In the third screening step: Luminex beads linked to IL-18BP and then complexed to IL-18; also called IL-18 previously complexed to IL-18BP; complex IL-18/IL-18BP", "T2 sequence 1": "T1 sequence (looked up)", "T2 sequence 2": "B7 chain", "test": "Luminex, third screening step against first", "method": "as §1", "units": {"fold inhibition (binding on IL-18 complexed to IL-18BP against binding on IL-18)": "fold"}, "values": [{"binder": "B1", "fold inhibition (binding on IL-18 complexed to IL-18BP against binding on IL-18)": "> 500"}, {"binder": "B2", "fold inhibition (binding on IL-18 complexed to IL-18BP against binding on IL-18)": "> 500"}, {"binder": "B3", "fold inhibition (binding on IL-18 complexed to IL-18BP against binding on IL-18)": "> 500"}, {"binder": "B4", "fold inhibition (binding on IL-18 complexed to IL-18BP against binding on IL-18)": "> 500"}, {"binder": "B5", "fold inhibition (binding on IL-18 complexed to IL-18BP against binding on IL-18)": "> 500"}, {"binder": "B6", "fold inhibition (binding on IL-18 complexed to IL-18BP against binding on IL-18)": "> 500"}]}, {"biological_target": "T1, human interleukin-18 (IL-18), …", "test": "free IL-18 ELISA with plate-bound IL-18BP as capture; 400 pg/ml IL-18 in PBS with 5% BSA spiked with soluble IL-18BP at 0 to 10000 pg/ml; soluble IL-18BP competes with the capture IL-18BP", "description": "Microplates can also be dried in a stabilizing solution allowing storage at room temperature and then be reconstituted by hydration when needed for assay.", "units": {"IC50 (read off the curve)": "ng/mL"}, "values": [{"binder": "B7", "IC50 (read off the curve)": "~2"}]}, {"biological_target": "T1, human interleukin-18 (IL-18), …", "test": "Luminex competition, antibody pre-bound to IL-18 beads, biotinylated IL-18BP as competitor is detected", "units": {"fluorescence intensity (IL-18BP binding on IL-18 previously complexed to monoclonal antibody)": "fluorescence intensity"}, "values": [{"binder": "B1", "fluorescence intensity (IL-18BP binding on IL-18 previously complexed to monoclonal antibody)": 1490}, {"binder": "B2", "fluorescence intensity (IL-18BP binding on IL-18 previously complexed to monoclonal antibody)": 913}, {"binder": "B3", "fluorescence intensity (IL-18BP binding on IL-18 previously complexed to monoclonal antibody)": 1660}, {"binder": "B4", "fluorescence intensity (IL-18BP binding on IL-18 previously complexed to monoclonal antibody)": 1390}, {"binder": "B5", "fluorescence intensity (IL-18BP binding on IL-18 previously complexed to monoclonal antibody)": 1030}, {"binder": "B6", "fluorescence intensity (IL-18BP binding on IL-18 previously complexed to monoclonal antibody)": 1290}]}, {"biological_target": "T2, IL-18/IL-18BP complex", "test": "Luminex, beads linked to IL-18BP then complexed to IL-18, antibody binding", "method": "as §1", "units": {"fluorescence intensity (monoclonal antibody binding on IL-18 previously complexed to IL-18BP)": "fluorescence intensity"}, "values": [{"binder": "B1", "fluorescence intensity (monoclonal antibody binding on IL-18 previously complexed to IL-18BP)": 28}, {"binder": "B2", "fluorescence intensity (monoclonal antibody binding on IL-18 previously complexed to IL-18BP)": 33}, {"binder": "B3", "fluorescence intensity (monoclonal antibody binding on IL-18 previously complexed to IL-18BP)": 41}, {"binder": "B4", "fluorescence intensity (monoclonal antibody binding on IL-18 previously complexed to IL-18BP)": 33}, {"binder": "B5", "fluorescence intensity (monoclonal antibody binding on IL-18 previously complexed to IL-18BP)": 24}, {"binder": "B6", "fluorescence intensity (monoclonal antibody binding on IL-18 previously complexed to IL-18BP)": 45}]}, {"biological_target": "T1, human interleukin-18 (IL-18), …", "test": "free IL-18 ELISA with IL-18BP capture; 400 pg/mL IL-18 in PBS 5% BSA spiked with IL-18BP", "units": {"molar ratio IL-18BP/IL-18 at which free IL-18 is near background": "fold"}, "quoted_text": "After that, 20 μl sample volume containing biological fluid or standard is dispensed per microplate well. Non-diluted or diluted biological fluid can be but is not restricted to serum, urine, tear, saliva, bile, sweat, exhalation or expiration, sputum, bronchoalveolar fluid, sebum, cellular, gland, mucosa or tissue secretion, biopsy, homogenized tissue. […] The plates are sealed and then incubated under gentle shaking for free IL-18 capture. […] The microplate wells are the washed extensively with the appropriate buffer and then, 100 μl buffer developing mixture is added to each well. The developing mixture contains a streptavidin-conjugated enzyme such as peroxidase or alkaline phosphatase. […] The resulting reactions are then monitored with a microplate reader at an appropriate nanometer wavelength for absorbance or fluorescence of the produced reagent.", "values": [{"binder": "B7", "molar ratio IL-18BP/IL-18 at which free IL-18 is near background": "~15"}]}]}
